One block for each binder: values may come before it.
Tests used:
Test in all cases: holdup assay
Parameters in all cases: key: below the threshold = too weak to quantify, mostly under pKd 3.1 to 4
PDZRN4_1, Q6ZMN7 = target: PDZRN4_1, Q6ZMN7
PDLIM1, O00151 = target: PDLIM1, O00151
NHERF3_3, Q5T2W1 = target: T1, NHERF3_3, Q5T2W1
T1 sequence (Q5T2W1 238-333, limits assumed, looked up): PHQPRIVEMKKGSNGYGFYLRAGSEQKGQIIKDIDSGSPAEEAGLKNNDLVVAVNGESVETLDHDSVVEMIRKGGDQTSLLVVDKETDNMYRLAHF

MPP6, Q9NZW5 = target: T2, MPP6, Q9NZW5
T2 sequence (Q9NZW5 125-219, limits assumed, looked up): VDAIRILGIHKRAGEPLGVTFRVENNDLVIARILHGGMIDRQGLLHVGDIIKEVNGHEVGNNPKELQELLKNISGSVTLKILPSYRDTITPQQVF

LIN7A, O14910 = target: T3, LIN7A, O14910
T3 sequence (O14910 103-200, limits assumed, looked up): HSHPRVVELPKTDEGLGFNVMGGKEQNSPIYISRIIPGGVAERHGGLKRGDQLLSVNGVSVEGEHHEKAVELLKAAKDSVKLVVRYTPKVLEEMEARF

MAGI2_6, Q86UL8 = target: MAGI2_6, Q86UL8
DLG1_1, Q12959 = target: DLG1_1, Q12959
IL16_4, Q14005 = target: IL16_4, Q14005
DFNB31_3, Q9P202 = target: T4, DFNB31_3, Q9P202
T4 sequence (Q9P202 811-907, limits assumed, looked up): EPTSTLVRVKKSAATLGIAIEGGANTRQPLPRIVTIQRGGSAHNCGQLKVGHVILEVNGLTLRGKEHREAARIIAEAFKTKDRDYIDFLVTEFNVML

HTRA2, O43464 = target: HTRA2, O43464
Inadl_4, Q8NI35 = target: Inadl_4, Q8NI35
Inadl_8, Q8NI35 = target: Inadl_8, Q8NI35
GRIP1_2, Q9Y3R0 = target: T5, GRIP1_2, Q9Y3R0
T5 sequence (Q9Y3R0 145-248, limits assumed, looked up): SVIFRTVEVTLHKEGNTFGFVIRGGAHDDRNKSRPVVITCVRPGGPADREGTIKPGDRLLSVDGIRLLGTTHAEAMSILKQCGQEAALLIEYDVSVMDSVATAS

SCRIB_2, Q14160 = target: SCRIB_2, Q14160
Inadl_1, Q8NI35 = target: Inadl_1, Q8NI35
GOPC, Q9HD26 = target: GOPC, Q9HD26
LNX1_2, Q8TBB1 = target: LNX1_2, Q8TBB1
SNTA1, Q13424 = target: T6, SNTA1, Q13424
T6 sequence (Q13424 82-180, limits assumed, looked up): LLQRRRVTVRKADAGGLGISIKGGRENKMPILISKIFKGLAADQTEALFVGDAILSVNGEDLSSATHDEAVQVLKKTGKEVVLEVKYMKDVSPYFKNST

PDZRN3_1, Q9UPQ7 = target: T7, PDZRN3_1, Q9UPQ7
T7 sequence (Q9UPQ7 244-349, limits assumed, looked up): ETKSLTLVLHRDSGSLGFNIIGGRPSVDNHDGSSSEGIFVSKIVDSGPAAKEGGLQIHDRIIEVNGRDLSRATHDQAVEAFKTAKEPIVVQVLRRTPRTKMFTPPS

GRIP1_5, Q9Y3R0 = target: T8, GRIP1_5, Q9Y3R0
T8 sequence (Q9Y3R0 568-668, limits assumed, looked up): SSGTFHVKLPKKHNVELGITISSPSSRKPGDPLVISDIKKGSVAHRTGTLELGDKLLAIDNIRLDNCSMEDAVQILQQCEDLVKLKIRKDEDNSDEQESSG

APBA1_2, Q02410 = target: T9, APBA1_2, Q02410
T9 sequence (Q02410 742-832, limits assumed, looked up): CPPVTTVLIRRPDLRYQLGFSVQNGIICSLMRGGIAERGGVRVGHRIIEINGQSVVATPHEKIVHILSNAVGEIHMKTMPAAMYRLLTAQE

DLG2_2, Q15700 = target: DLG2_2, Q15700
PARD3_3, Q8TEW0 = target: PARD3_3, Q8TEW0
NHERF3_4, Q5T2W1 = target: T10, NHERF3_4, Q5T2W1
T10 sequence (Q5T2W1 373-468, limits assumed, looked up): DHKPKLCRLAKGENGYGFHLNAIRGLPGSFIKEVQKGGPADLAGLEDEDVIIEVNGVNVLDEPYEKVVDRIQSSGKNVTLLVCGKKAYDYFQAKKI

GRIP1_3, Q9Y3R0 = target: T11, GRIP1_3, Q9Y3R0
T11 sequence (Q9Y3R0 247-346, limits assumed, looked up): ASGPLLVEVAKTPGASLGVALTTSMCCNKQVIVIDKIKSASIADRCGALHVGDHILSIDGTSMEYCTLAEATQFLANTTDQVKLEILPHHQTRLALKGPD

DLG3_1, Q92796 = target: T12, DLG3_1, Q92796
T12 sequence (Q92796 125-227, limits assumed, looked up): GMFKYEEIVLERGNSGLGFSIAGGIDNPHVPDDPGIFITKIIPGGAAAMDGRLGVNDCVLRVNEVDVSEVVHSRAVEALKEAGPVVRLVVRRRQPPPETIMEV

[1] = plain residues with an end cap or a label only (N-terminal biotin on a linker: gsgsgs; C-terminal amide)
[2] = plain residues with an end cap or a label only (N-terminal biotin on a linker: ttds)
[3] = plain residues with an end cap or a label only (N-terminal biotin on a linker: ahx)

Chain of Inadl_1, Q8NI35 (Q8NI35 113-229): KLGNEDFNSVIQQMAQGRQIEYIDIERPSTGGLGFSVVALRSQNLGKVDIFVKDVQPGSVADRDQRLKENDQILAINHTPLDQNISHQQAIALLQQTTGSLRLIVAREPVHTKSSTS
Chain of IL16_4, Q14005 (Q14005 1229-1329): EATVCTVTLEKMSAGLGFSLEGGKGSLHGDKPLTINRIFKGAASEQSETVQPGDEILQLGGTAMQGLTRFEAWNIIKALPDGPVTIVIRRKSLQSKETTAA
Chain of PDLIM1, O00151 (O00151 1-87): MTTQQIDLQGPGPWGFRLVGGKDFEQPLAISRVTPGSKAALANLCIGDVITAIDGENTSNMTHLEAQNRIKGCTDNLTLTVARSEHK
Chain of MAGI2_6, Q86UL8 (Q86UL8 1141-1229): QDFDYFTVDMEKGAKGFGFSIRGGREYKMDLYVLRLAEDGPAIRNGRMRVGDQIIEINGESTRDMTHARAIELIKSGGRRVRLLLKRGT
Chain of HTRA2, O43464 (O43464 355-458): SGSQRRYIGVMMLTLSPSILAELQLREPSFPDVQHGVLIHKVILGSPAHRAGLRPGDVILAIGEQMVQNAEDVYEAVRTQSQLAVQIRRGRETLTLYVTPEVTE
Chain of PDZRN4_1, Q6ZMN7 (Q6ZMN7 213-318): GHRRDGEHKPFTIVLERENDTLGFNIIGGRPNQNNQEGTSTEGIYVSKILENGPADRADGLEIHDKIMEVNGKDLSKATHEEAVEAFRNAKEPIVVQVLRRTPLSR
Chain of Inadl_4, Q8NI35 (Q8NI35 547-651): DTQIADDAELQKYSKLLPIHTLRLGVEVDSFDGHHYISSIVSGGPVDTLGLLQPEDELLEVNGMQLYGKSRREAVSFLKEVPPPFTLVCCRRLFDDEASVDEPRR
Chain of LNX1_2, Q8TBB1 (Q8TBB1 371-470): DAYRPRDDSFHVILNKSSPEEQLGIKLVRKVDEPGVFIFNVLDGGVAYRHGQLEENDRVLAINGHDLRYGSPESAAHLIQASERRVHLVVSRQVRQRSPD
Chain of Inadl_8, Q8NI35 (Q8NI35 1425-1530): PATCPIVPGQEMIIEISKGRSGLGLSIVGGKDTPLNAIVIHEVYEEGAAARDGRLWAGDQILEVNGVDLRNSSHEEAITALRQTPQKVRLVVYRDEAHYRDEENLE
Chain of PARD3_3, Q8TEW0 (Q8TEW0 582-685): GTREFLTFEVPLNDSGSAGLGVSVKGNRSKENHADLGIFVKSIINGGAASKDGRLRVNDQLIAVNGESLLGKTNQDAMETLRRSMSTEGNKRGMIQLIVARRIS
Chain of DLG2_2, Q15700 (Q15700 189-283): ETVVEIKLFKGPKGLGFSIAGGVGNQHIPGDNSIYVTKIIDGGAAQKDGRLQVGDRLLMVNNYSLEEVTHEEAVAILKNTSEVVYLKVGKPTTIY
Chain of SCRIB_2, Q14160 (Q14160 857-960): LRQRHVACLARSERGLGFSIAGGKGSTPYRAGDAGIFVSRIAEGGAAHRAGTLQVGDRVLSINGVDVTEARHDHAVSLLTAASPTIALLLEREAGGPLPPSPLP

pKd (PDZRN4_1, Q6ZMN7; [2]): 3.87
pKd (PDLIM1, O00151; [2]): below the threshold
pKd (NHERF3_3, Q5T2W1; [2]): below the threshold
pKd (MPP6, Q9NZW5; [2]): below the threshold
pKd (LIN7A, O14910; [2]): below the threshold
pKd (MAGI2_6, Q86UL8; [2]): below the threshold
pKd (DLG1_1, Q12959; [2]): below the threshold
pKd (IL16_4, Q14005; [2]): below the threshold
pKd (DFNB31_3, Q9P202; [2]): below the threshold
pKd (HTRA2, O43464; [2]): below the threshold
pKd (Inadl_4, Q8NI35; [2]): below the threshold
pKd (Inadl_8, Q8NI35; [2]): below the threshold
pKd (GRIP1_2, Q9Y3R0; [2]): below the threshold
pKd (SCRIB_2, Q14160; [2]): below the threshold
pKd (Inadl_1, Q8NI35; [2]): 3.64
pKd (GOPC, Q9HD26; [2]): 3.76
pKd (LNX1_2, Q8TBB1; [2]): below the threshold
pKd (SNTA1, Q13424; [2]): 3.81
pKd (PDZRN3_1, Q9UPQ7; [2]): 3.61
pKd (GRIP1_5, Q9Y3R0; [2]): 3.55
pKd (APBA1_2, Q02410; [2]): below the threshold
pKd (DLG2_2, Q15700; [2]): below the threshold
pKd (PARD3_3, Q8TEW0; [2]): below the threshold
pKd (NHERF3_4, Q5T2W1; [2]): below the threshold
pKd (GRIP1_3, Q9Y3R0; [2]): below the threshold
pKd (DLG3_1, Q92796; [2]): below the threshold
B2: SLC1A5, Q15758 (peptide)
chain: TVASEKESVM

pKd (PDZRN4_1, Q6ZMN7; [2]): below the threshold
pKd (PDLIM1, O00151; [2]): below the threshold
pKd (NHERF3_3, Q5T2W1; [2]): below the threshold
pKd (MPP6, Q9NZW5; [2]): below the threshold
pKd (LIN7A, O14910; [2]): below the threshold
pKd (MAGI2_6, Q86UL8; [2]): 3.97
pKd (DLG1_1, Q12959; [2]): 4.02
pKd (IL16_4, Q14005; [2]): below the threshold
pKd (DFNB31_3, Q9P202; [2]): below the threshold
pKd (HTRA2, O43464; [2]): below the threshold
pKd (Inadl_4, Q8NI35; [2]): below the threshold
pKd (Inadl_8, Q8NI35; [2]): below the threshold
pKd (GRIP1_2, Q9Y3R0; [2]): below the threshold
pKd (SCRIB_2, Q14160; [2]): 4.08
pKd (Inadl_1, Q8NI35; [2]): 3.57
pKd (GOPC, Q9HD26; [2]): 3.5
pKd (LNX1_2, Q8TBB1; [2]): below the threshold
pKd (SNTA1, Q13424; [2]): below the threshold
pKd (PDZRN3_1, Q9UPQ7; [2]): below the threshold
pKd (GRIP1_5, Q9Y3R0; [2]): below the threshold
pKd (APBA1_2, Q02410; [2]): 3.74
pKd (DLG2_2, Q15700; [2]): below the threshold
pKd (PARD3_3, Q8TEW0; [2]): below the threshold
pKd (NHERF3_4, Q5T2W1; [2]): below the threshold
pKd (GRIP1_3, Q9Y3R0; [2]): below the threshold
pKd (DLG3_1, Q92796; [2]): 3.69
B5: KIR3DL3, Q8N743 (peptide)
chain: PKTPPTDTSV

Continued, binder first:

B1: AXIN1_int, O15169 (peptide)
chain: TLSLTDSSVDGIPPYR
pKd (PDZRN4_1, Q6ZMN7; [1]): below the threshold
pKd (PDLIM1, O00151; [1]): below the threshold
pKd (NHERF3_3, Q5T2W1; [1]): below the threshold
pKd (MPP6, Q9NZW5; [1]): 3.93
pKd (LIN7A, O14910; [1]): below the threshold
pKd (MAGI2_6, Q86UL8; [1]): below the threshold
pKd (DLG1_1, Q12959; [1]): below the threshold
pKd (IL16_4, Q14005; [1]): below the threshold
pKd (DFNB31_3, Q9P202; [1]): 3.91
pKd (HTRA2, O43464; [1]): below the threshold
pKd (Inadl_4, Q8NI35; [1]): below the threshold
pKd (Inadl_8, Q8NI35; [1]): below the threshold
pKd (GRIP1_2, Q9Y3R0; [1]): below the threshold
pKd (SCRIB_2, Q14160; [1]): below the threshold
pKd (Inadl_1, Q8NI35; [1]): below the threshold
pKd (GOPC, Q9HD26; [1]): below the threshold
pKd (LNX1_2, Q8TBB1; [1]): below the threshold
pKd (SNTA1, Q13424; [1]): below the threshold
pKd (PDZRN3_1, Q9UPQ7; [1]): below the threshold
pKd (GRIP1_5, Q9Y3R0; [1]): below the threshold
pKd (APBA1_2, Q02410; [1]): below the threshold
pKd (DLG2_2, Q15700; [1]): below the threshold
pKd (PARD3_3, Q8TEW0; [1]): below the threshold
pKd (NHERF3_4, Q5T2W1; [1]): below the threshold
pKd (GRIP1_3, Q9Y3R0; [1]): below the threshold
pKd (DLG3_1, Q92796; [1]): below the threshold

B3: DLGAP4, Q9Y2H0 (peptide)
chain: IYVPEAQTRL
pKd (PDZRN4_1, Q6ZMN7; [2]): 4.08
pKd (PDLIM1, O00151; [2]): below the threshold
pKd (NHERF3_3, Q5T2W1; [2]): 4.14
pKd (MPP6, Q9NZW5; [2]): below the threshold
pKd (LIN7A, O14910; [2]): below the threshold
pKd (MAGI2_6, Q86UL8; [2]): below the threshold
pKd (DLG1_1, Q12959; [2]): below the threshold
pKd (IL16_4, Q14005; [2]): below the threshold
pKd (DFNB31_3, Q9P202; [2]): below the threshold
pKd (HTRA2, O43464; [2]): below the threshold
pKd (Inadl_4, Q8NI35; [2]): below the threshold
pKd (Inadl_8, Q8NI35; [2]): below the threshold
pKd (GRIP1_2, Q9Y3R0; [2]): below the threshold
pKd (SCRIB_2, Q14160; [2]): below the threshold
pKd (Inadl_1, Q8NI35; [2]): below the threshold
pKd (GOPC, Q9HD26; [2]): 4.21
pKd (LNX1_2, Q8TBB1; [2]): below the threshold
pKd (SNTA1, Q13424; [2]): 3.98
pKd (PDZRN3_1, Q9UPQ7; [2]): 3.94
pKd (GRIP1_5, Q9Y3R0; [2]): below the threshold
pKd (APBA1_2, Q02410; [2]): 3.64
pKd (DLG2_2, Q15700; [2]): below the threshold
pKd (PARD3_3, Q8TEW0; [2]): 3.87
pKd (NHERF3_4, Q5T2W1; [2]): 3.87
pKd (GRIP1_3, Q9Y3R0; [2]): below the threshold
pKd (DLG3_1, Q92796; [2]): below the threshold

B4: CNKSR2, Q8WXI2 (peptide)
chain: HTHSYIETHV
pKd (PDZRN4_1, Q6ZMN7; [3]): below the threshold
pKd (PDLIM1, O00151; [3]): below the threshold
pKd (NHERF3_3, Q5T2W1; [3]): below the threshold
pKd (MPP6, Q9NZW5; [3]): below the threshold
pKd (LIN7A, O14910; [3]): below the threshold
pKd (MAGI2_6, Q86UL8; [3]): 4.41
pKd (DLG1_1, Q12959; [3]): 4.62
pKd (IL16_4, Q14005; [3]): below the threshold
pKd (DFNB31_3, Q9P202; [3]): below the threshold
pKd (HTRA2, O43464; [3]): below the threshold
pKd (Inadl_4, Q8NI35; [3]): below the threshold
pKd (Inadl_8, Q8NI35; [3]): below the threshold
pKd (GRIP1_2, Q9Y3R0; [3]): below the threshold
pKd (SCRIB_2, Q14160; [3]): 5.31
pKd (Inadl_1, Q8NI35; [3]): below the threshold
pKd (GOPC, Q9HD26; [3]): below the threshold
pKd (LNX1_2, Q8TBB1; [3]): below the threshold
pKd (SNTA1, Q13424; [3]): 4.93
pKd (PDZRN3_1, Q9UPQ7; [3]): 3.8
pKd (GRIP1_5, Q9Y3R0; [3]): below the threshold
pKd (APBA1_2, Q02410; [3]): 4.16
pKd (DLG2_2, Q15700; [3]): 4.42
pKd (PARD3_3, Q8TEW0; [3]): below the threshold
pKd (NHERF3_4, Q5T2W1; [3]): below the threshold
pKd (GRIP1_3, Q9Y3R0; [3]): below the threshold
pKd (DLG3_1, Q92796; [3]): 4.08

— paper PMC9482650, “Quantitative fragmentomics allow affinity mapping of interactomes” (Nature Communications, 2022)
